Source: the supplement of paper PMC9112550, “Optimization of the antimicrobial peptide Bac7 by deep mutational scanning” (BMC Biology, 2022)

Test system: Escherichia coli TOP10
Assay: shrunken log2 fold change of peptide-encoding DNA abundance (4.5 h post-induction vs induction); higher = less antimicrobial activity (less host growth inhibition)
Conditions: time post-induction: 4.5 h; library: site-saturation at positions 5, 18, 19, 20
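Note: peptides expressed intracellularly from a pBAD plasmid library in pooled LB shake-flask culture, induced with 0.3% L-arabinose, DNA abundance read by NGS, three biological replicates, DESeq2 with apeglm shrinkage.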

## RRIRDRPPRLPRPRPRPVPIPRP
  shrunken log2 fold change: 0.245

## RRIRKRPPRLPRPRPRPAMWPRP
  shrunken log2 fold change: 0.241

## RRIRFRPPRLPRPRPRPCHDPRP
  shrunken log2 fold change: 0.236

## RRIRERPPRLPRPRPRPQADPRP
  shrunken log2 fold change: -0.171

## RRIRKRPPRLPRPRPRPDHNPRP
  shrunken log2 fold change: -0.276

## RRIRERPPRLPRPRPRPYMMPRP
  shrunken log2 fold change: -0.259

## RRIRIRPPRLPRPRPRPCPVPRP
  shrunken log2 fold change: -0.523

## RRIRQRPPRLPRPRPRPYMNPRP
  shrunken log2 fold change: -0.155

## RRIRHRPPRLPRPRPRPMFIPRP
  shrunken log2 fold change: -0.0886

## RRIRERPPRLPRPRPRPLCVPRP
  shrunken log2 fold change: -0.307

## RRIRHRPPRLPRPRPRPNKGPRP
  shrunken log2 fold change: -0.174

## RRIRWRPPRLPRPRPRPAYQPRP
  shrunken log2 fold change: 0.106

## RRIRDRPPRLPRPRPRPSGFPRP
  shrunken log2 fold change: 0.029

## RRIRCRPPRLPRPRPRPLYEPRP
  shrunken log2 fold change: -0.43

## RRIRPRPPRLPRPRPRPSMKPRP
  shrunken log2 fold change: -0.223

## RRIRDRPPRLPRPRPRPWVIPRP
  shrunken log2 fold change: -0.00136

## RRIRMRPPRLPRPRPRPNDVPRP
  shrunken log2 fold change: -0.00114

## RRIRTRPPRLPRPRPRPHMFPRP
  shrunken log2 fold change: -0.0142

## RRIRFRPPRLPRPRPRPCPLPRP
  shrunken log2 fold change: -0.183

## RRIRRRPPRLPRPRPRPGWQPRP
  shrunken log2 fold change: 0.381

## RRIRHRPPRLPRPRPRPPNNPRP
  shrunken log2 fold change: -0.58

## RRIRERPPRLPRPRPRPKYMPRP
  shrunken log2 fold change: 0.822

## RRIRTRPPRLPRPRPRPKHFPRP
  shrunken log2 fold change: -0.0888

## RRIRFRPPRLPRPRPRPDYAPRP
  shrunken log2 fold change: -1.13

## RRIRPRPPRLPRPRPRPRPHPRP
  shrunken log2 fold change: 0.499

## RRIRTRPPRLPRPRPRPMPPPRP
  shrunken log2 fold change: 0.0692

## RRIRIRPPRLPRPRPRPPRHPRP
  shrunken log2 fold change: 0.166

## RRIRPRPPRLPRPRPRPDRSPRP
  shrunken log2 fold change: -0.1

## RRIRMRPPRLPRPRPRPVLHPRP
  shrunken log2 fold change: -0.309

## RRIRDRPPRLPRPRPRPCYWPRP
  shrunken log2 fold change: 0.00776

## RRIRPRPPRLPRPRPRPYASPRP
  shrunken log2 fold change: -0.0775

## RRIRYRPPRLPRPRPRPWPSPRP
  shrunken log2 fold change: -0.00149

## RRIRTRPPRLPRPRPRPCYHPRP
  shrunken log2 fold change: -0.637

## RRIRSRPPRLPRPRPRPMDAPRP
  shrunken log2 fold change: -0.0809

## RRIRMRPPRLPRPRPRPFVYPRP
  shrunken log2 fold change: -0.00869

## RRIRLRPPRLPRPRPRPWNHPRP
  shrunken log2 fold change: -0.347

## RRIRVRPPRLPRPRPRPYLQPRP
  shrunken log2 fold change: -0.946

## RRIRKRPPRLPRPRPRPVMEPRP
  shrunken log2 fold change: 0.581

## RRIRWRPPRLPRPRPRPKCPPRP
  shrunken log2 fold change: -0.00278

## RRIRERPPRLPRPRPRPDGCPRP
  shrunken log2 fold change: 0.0163

## RRIRFRPPRLPRPRPRPKMYPRP
  shrunken log2 fold change: -0.815

## RRIRPRPPRLPRPRPRPSRWPRP
  shrunken log2 fold change: 0.611

## RRIRSRPPRLPRPRPRPWEEPRP
  shrunken log2 fold change: 0.0166

## RRIRFRPPRLPRPRPRPSGVPRP
  shrunken log2 fold change: 0.0832

## RRIRVRPPRLPRPRPRPWWCPRP
  shrunken log2 fold change: -0.0966

## RRIRDRPPRLPRPRPRPHYAPRP
  shrunken log2 fold change: -0.00151

## RRIRSRPPRLPRPRPRPMYRPRP
  shrunken log2 fold change: -0.172

## RRIRRRPPRLPRPRPRPDGVPRP
  shrunken log2 fold change: 0.268

## RRIRNRPPRLPRPRPRPYDMPRP
  shrunken log2 fold change: -0.00776

## RRIRIRPPRLPRPRPRPMCYPRP
  shrunken log2 fold change: -1

## RRIRNRPPRLPRPRPRPSGLPRP
  shrunken log2 fold change: 0.0284

## RRIRKRPPRLPRPRPRPKPWPRP
  shrunken log2 fold change: 0.526

## RRIRTRPPRLPRPRPRPYYWPRP
  shrunken log2 fold change: -0.0825

## RRIRDRPPRLPRPRPRPAEFPRP
  shrunken log2 fold change: 0.149

## RRIRMRPPRLPRPRPRPHDPPRP
  shrunken log2 fold change: 0.000689

## RRIRMRPPRLPRPRPRPMLFPRP
  shrunken log2 fold change: 0.138

## RRIRNRPPRLPRPRPRPEIFPRP
  shrunken log2 fold change: -0.0153

## RRIRERPPRLPRPRPRPKETPRP
  shrunken log2 fold change: 0.0319

## RRIRWRPPRLPRPRPRPTPRPRP
  shrunken log2 fold change: 0.851

## RRIRNRPPRLPRPRPRPQDNPRP
  shrunken log2 fold change: 0.0553

## RRIRFRPPRLPRPRPRPMKCPRP
  shrunken log2 fold change: -0.695

## RRIRRRPPRLPRPRPRPMCTPRP
  shrunken log2 fold change: 0.459

## RRIRHRPPRLPRPRPRPTTMPRP
  shrunken log2 fold change: -0.261

## RRIRNRPPRLPRPRPRPDITPRP
  shrunken log2 fold change: -0.0553

## RRIRFRPPRLPRPRPRPLDMPRP
  shrunken log2 fold change: -0.372

## RRIRDRPPRLPRPRPRPKIFPRP
  shrunken log2 fold change: -0.0898

## RRIRQRPPRLPRPRPRPVHYPRP
  shrunken log2 fold change: -0.0228

## RRIRHRPPRLPRPRPRPLDGPRP
  shrunken log2 fold change: -0.34

## RRIRHRPPRLPRPRPRPIVAPRP
  shrunken log2 fold change: 0.0238

## RRIRFRPPRLPRPRPRPYTAPRP
  shrunken log2 fold change: -1.07

## RRIRVRPPRLPRPRPRPPEAPRP
  shrunken log2 fold change: -0.0358

## RRIRPRPPRLPRPRPRPAVHPRP
  shrunken log2 fold change: 0.0984

## RRIRERPPRLPRPRPRPEHLPRP
  shrunken log2 fold change: 0.0163

## RRIRFRPPRLPRPRPRPSLDPRP
  shrunken log2 fold change: -0.296

## RRIRKRPPRLPRPRPRPLKHPRP
  shrunken log2 fold change: 0.0711

## RRIRDRPPRLPRPRPRPAHVPRP
  shrunken log2 fold change: -0.0599

## RRIRGRPPRLPRPRPRPTMFPRP
  shrunken log2 fold change: 0.521

## RRIRKRPPRLPRPRPRPYSVPRP
  shrunken log2 fold change: -0.114

## RRIRHRPPRLPRPRPRPETDPRP
  shrunken log2 fold change: -0.253

## RRIRIRPPRLPRPRPRPPFHPRP
  shrunken log2 fold change: -0.513

## RRIRLRPPRLPRPRPRPENIPRP
  shrunken log2 fold change: -0.519

## RRIRARPPRLPRPRPRPYQDPRP
  shrunken log2 fold change: -0.00221

## RRIRQRPPRLPRPRPRPLETPRP
  shrunken log2 fold change: 0.181

## RRIRGRPPRLPRPRPRPHFRPRP
  shrunken log2 fold change: 0.199

## RRIRARPPRLPRPRPRPMGDPRP
  shrunken log2 fold change: -0.0121

## RRIRMRPPRLPRPRPRPLWGPRP
  shrunken log2 fold change: 0.119

## RRIRNRPPRLPRPRPRPIWHPRP
  shrunken log2 fold change: -0.356

## RRIRHRPPRLPRPRPRPLASPRP
  shrunken log2 fold change: -0.0121

## RRIRWRPPRLPRPRPRPMVLPRP
  shrunken log2 fold change: -0.243

## RRIRARPPRLPRPRPRPMFFPRP
  shrunken log2 fold change: 0.0123

## RRIRGRPPRLPRPRPRPGDLPRP
  shrunken log2 fold change: 2.41

## RRIRKRPPRLPRPRPRPMRIPRP
  shrunken log2 fold change: 0.34

## RRIRSRPPRLPRPRPRPGHEPRP
  shrunken log2 fold change: 0.101

## RRIRKRPPRLPRPRPRPCWDPRP
  shrunken log2 fold change: 0.0719

## RRIRTRPPRLPRPRPRPSVTPRP
  shrunken log2 fold change: -0.0217

## RRIRYRPPRLPRPRPRPNRKPRP
  shrunken log2 fold change: -0.284

## RRIRYRPPRLPRPRPRPWYIPRP
  shrunken log2 fold change: -0.00804

## RRIRARPPRLPRPRPRPTLSPRP
  shrunken log2 fold change: 0.801

## RRIRLRPPRLPRPRPRPMAYPRP
  shrunken log2 fold change: -0.0987

## RRIRGRPPRLPRPRPRPEKCPRP
  shrunken log2 fold change: 0.599

## RRIRGRPPRLPRPRPRPCLWPRP
  shrunken log2 fold change: 0.426

## RRIRMRPPRLPRPRPRPCWVPRP
  shrunken log2 fold change: 0.827

## RRIRIRPPRLPRPRPRPIELPRP
  shrunken log2 fold change: 0.0658

## RRIRQRPPRLPRPRPRPYHIPRP
  shrunken log2 fold change: 0.0735

## RRIRQRPPRLPRPRPRPGGYPRP
  shrunken log2 fold change: 0.144

## RRIRARPPRLPRPRPRPCHSPRP
  shrunken log2 fold change: 0.0213

## RRIRWRPPRLPRPRPRPEIFPRP
  shrunken log2 fold change: 0.0932

## RRIRYRPPRLPRPRPRPYTRPRP
  shrunken log2 fold change: -1.51

## RRIRQRPPRLPRPRPRPDGWPRP
  shrunken log2 fold change: 0.228

## RRIRERPPRLPRPRPRPLMLPRP
  shrunken log2 fold change: -0.813

## RRIRGRPPRLPRPRPRPLHQPRP
  shrunken log2 fold change: 0.665

## RRIRLRPPRLPRPRPRPDPVPRP
  shrunken log2 fold change: -0.0275

## RRIRQRPPRLPRPRPRPTYPPRP
  shrunken log2 fold change: 0.0397

## RRIRCRPPRLPRPRPRPVGKPRP
  shrunken log2 fold change: 0.0374

## RRIRLRPPRLPRPRPRPTCKPRP
  shrunken log2 fold change: -0.0465

## RRIRDRPPRLPRPRPRPCFHPRP
  shrunken log2 fold change: -0.336

## RRIRTRPPRLPRPRPRPPAIPRP
  shrunken log2 fold change: 0.0134

## RRIRKRPPRLPRPRPRPYDRPRP
  shrunken log2 fold change: 0.192

## RRIRKRPPRLPRPRPRPTHTPRP
  shrunken log2 fold change: 0.285

## RRIRCRPPRLPRPRPRPNFAPRP
  shrunken log2 fold change: -0.098

## RRIRTRPPRLPRPRPRPHIGPRP
  shrunken log2 fold change: -0.156

## RRIRTRPPRLPRPRPRPSAIPRP
  shrunken log2 fold change: -0.979

## RRIRSRPPRLPRPRPRPVKKPRP
  shrunken log2 fold change: 0.0525

## RRIRPRPPRLPRPRPRPSKAPRP
  shrunken log2 fold change: -0.175

## RRIRDRPPRLPRPRPRPFIHPRP
  shrunken log2 fold change: -0.572
